Laboratory results from PMC11200239.

Target: MerA variant G415I (P. aeruginosa) (UniProt P00392)
Experiment: SEC-MALS

Q: How did the stoichiometry N turn out when “MerA variant G415I (from UniProt P00392 96-561) (enzyme)” was run?
A: 2
